According to US20210139548A1 (published 2021):
*1 amine or outer side, *2 acyl side, *3 side chain or, on linkers, in order; H or OH if unused. Side-chain parts run from the residue outwards. The star is where a group is joined. C18 diacid = O=C(O)CCCCCCCCCCCCCCCCC(=O)*; γGlu = O=C(O)[C@H](CCC(=O)[*:2])N[*:1]; Isovaleryl = CC(C)CC(=O)*; AEEA = NCCOCCOCC(=O)O

T1: human neuropeptide Y2 receptor (human, UniProt P49146 1-381)
T1 construct: whole, on cells; also called hNPY2 receptor; hNPY2-R
T1 sequence (looked up): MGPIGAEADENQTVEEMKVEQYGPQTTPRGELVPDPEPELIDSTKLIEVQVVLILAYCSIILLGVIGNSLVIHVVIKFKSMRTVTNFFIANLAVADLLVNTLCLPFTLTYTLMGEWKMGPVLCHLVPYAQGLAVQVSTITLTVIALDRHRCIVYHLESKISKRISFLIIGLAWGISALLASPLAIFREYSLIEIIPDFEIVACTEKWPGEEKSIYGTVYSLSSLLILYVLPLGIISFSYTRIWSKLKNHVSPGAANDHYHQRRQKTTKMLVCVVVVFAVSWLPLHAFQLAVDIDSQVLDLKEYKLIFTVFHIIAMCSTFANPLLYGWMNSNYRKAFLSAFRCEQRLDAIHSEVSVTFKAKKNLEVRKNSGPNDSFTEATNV


Molecular target: T1, human neuropeptide Y2 receptor
Experiment: radioligand competition (125I-PYY(1-36)), hNPY2R membranes
Summary of the method: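 Commercial human Y2 receptor membranes (0.5 μg protein/well) were incubated with peptide for 2 h at room temperature in 50 mM HEPES, 5 mM MgCl₂, 1 mM CaCl₂, pH 7.4, with 0.2% ovalbumin. Bound radioligand was separated on PEI-soaked GF/C filters and counted by scintillation, and IC₅₀ came from nonlinear sigmoidal regression.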

Row | Binder | Ki
1 | Isovaleryl-APEK([AEEA-AEEA-γGlu-C18 diacid])PEEDASPEELQRYYVSTRHYYNWLTRQRY-NH2 (SMILES CC(C)CC(=O)N[C@@H](C)C(=O)N1CCC[C@H]1C(=O)N[C@@H](CCC(=O)O)C(=O)N[C@@H](CCCCNC(=O)COCCOCCNC(=O)COCCOCCNC(=O)CC[C@H](NC(=O)CCCCCCCCCCCCCCCCC(=O)O)C(=O)O)C(=O)N1CCC[C@H]1C(=O)N[C@@H](CCC(=O)O)C(=O)N[C@@H](CCC(=O)O)C(=O)N[C@@H](CC(=O)O)C(=O)N[C@@H](C)C(=O)N[C@@H](CO)C(=O)N1CCC[C@H]1C(=O)N[C@@H](CCC(=O)O)C(=O)N[C@@H](CCC(=O)O)C(=O)N[C@@H](CC(C)C)C(=O)N[C@@H](CCC(N)=O)C(=O)N[C@@H](CCCNC(=N)N)C(=O)N[C@@H](Cc1ccc(O)cc1)C(=O)N[C@@H](Cc1ccc(O)cc1)C(=O)N[C@H](C(=O)N[C@@H](CO)C(=O)N[C@H](C(=O)N[C@@H](CCCNC(=N)N)C(=O)N[C@@H](Cc1c[nH]cn1)C(=O)N[C@@H](Cc1ccc(O)cc1)C(=O)N[C@@H](Cc1ccc(O)cc1)C(=O)N[C@@H](CC(N)=O)C(=O)N[C@@H](Cc1c[nH]c2ccccc12)C(=O)N[C@@H](CC(C)C)C(=O)N[C@H](C(=O)N[C@@H](CCCNC(=N)N)C(=O)N[C@@H](CCC(N)=O)C(=O)N[C@@H](CCCNC(=N)N)C(=O)N[C@@H](Cc1ccc(O)cc1)C(N)=O)[C@@H](C)O)[C@@H](C)O)C(C)C) [Compound 34] | 6.4 nM
2 | Isovaleryl-APEK([AEEA-AEEA-γGlu-C18 diacid])PEEDAAPEETQRYYVSLRHYYNWLTRQRY-NH2 (SMILES CC(C)CC(=O)N[C@@H](C)C(=O)N1CCC[C@H]1C(=O)N[C@@H](CCC(=O)O)C(=O)N[C@@H](CCCCNC(=O)COCCOCCNC(=O)COCCOCCNC(=O)CC[C@H](NC(=O)CCCCCCCCCCCCCCCCC(=O)O)C(=O)O)C(=O)N1CCC[C@H]1C(=O)N[C@@H](CCC(=O)O)C(=O)N[C@@H](CCC(=O)O)C(=O)N[C@@H](CC(=O)O)C(=O)N[C@@H](C)C(=O)N[C@@H](C)C(=O)N1CCC[C@H]1C(=O)N[C@@H](CCC(=O)O)C(=O)N[C@@H](CCC(=O)O)C(=O)N[C@H](C(=O)N[C@@H](CCC(N)=O)C(=O)N[C@@H](CCCNC(=N)N)C(=O)N[C@@H](Cc1ccc(O)cc1)C(=O)N[C@@H](Cc1ccc(O)cc1)C(=O)N[C@H](C(=O)N[C@@H](CO)C(=O)N[C@@H](CC(C)C)C(=O)N[C@@H](CCCNC(=N)N)C(=O)N[C@@H](Cc1c[nH]cn1)C(=O)N[C@@H](Cc1ccc(O)cc1)C(=O)N[C@@H](Cc1ccc(O)cc1)C(=O)N[C@@H](CC(N)=O)C(=O)N[C@@H](Cc1c[nH]c2ccccc12)C(=O)N[C@@H](CC(C)C)C(=O)N[C@H](C(=O)N[C@@H](CCCNC(=N)N)C(=O)N[C@@H](CCC(N)=O)C(=O)N[C@@H](CCCNC(=N)N)C(=O)N[C@@H](Cc1ccc(O)cc1)C(N)=O)[C@@H](C)O)C(C)C)[C@@H](C)O) [Compound 35] | 1.21 nM
3 | Isovaleryl-APEK([AEEA-AEEA-γGlu-C18 diacid])AEEDAEPEELQRYYVSLRHYYNWLTRQRY-NH2 (SMILES CC(C)CC(=O)N[C@@H](C)C(=O)N1CCC[C@H]1C(=O)N[C@@H](CCC(=O)O)C(=O)N[C@@H](CCCCNC(=O)COCCOCCNC(=O)COCCOCCNC(=O)CC[C@H](NC(=O)CCCCCCCCCCCCCCCCC(=O)O)C(=O)O)C(=O)N[C@@H](C)C(=O)N[C@@H](CCC(=O)O)C(=O)N[C@@H](CCC(=O)O)C(=O)N[C@@H](CC(=O)O)C(=O)N[C@@H](C)C(=O)N[C@@H](CCC(=O)O)C(=O)N1CCC[C@H]1C(=O)N[C@@H](CCC(=O)O)C(=O)N[C@@H](CCC(=O)O)C(=O)N[C@@H](CC(C)C)C(=O)N[C@@H](CCC(N)=O)C(=O)N[C@@H](CCCNC(=N)N)C(=O)N[C@@H](Cc1ccc(O)cc1)C(=O)N[C@@H](Cc1ccc(O)cc1)C(=O)N[C@H](C(=O)N[C@@H](CO)C(=O)N[C@@H](CC(C)C)C(=O)N[C@@H](CCCNC(=N)N)C(=O)N[C@@H](Cc1c[nH]cn1)C(=O)N[C@@H](Cc1ccc(O)cc1)C(=O)N[C@@H](Cc1ccc(O)cc1)C(=O)N[C@@H](CC(N)=O)C(=O)N[C@@H](Cc1c[nH]c2ccccc12)C(=O)N[C@@H](CC(C)C)C(=O)N[C@H](C(=O)N[C@@H](CCCNC(=N)N)C(=O)N[C@@H](CCC(N)=O)C(=O)N[C@@H](CCCNC(=N)N)C(=O)N[C@@H](Cc1ccc(O)cc1)C(N)=O)[C@@H](C)O)C(C)C) [Compound 36] | 10.6 nM

Now from value to binder:

Row | Ki | Binder
4 | 4.85 nM | Isovaleryl-APEK([AEEA-AEEA-γGlu-C18 diacid])PEEDASPEETQRYEVSLRHYYNWLTRQRY-NH2 (SMILES CC(C)CC(=O)N[C@@H](C)C(=O)N1CCC[C@H]1C(=O)N[C@@H](CCC(=O)O)C(=O)N[C@@H](CCCCNC(=O)COCCOCCNC(=O)COCCOCCNC(=O)CC[C@H](NC(=O)CCCCCCCCCCCCCCCCC(=O)O)C(=O)O)C(=O)N1CCC[C@H]1C(=O)N[C@@H](CCC(=O)O)C(=O)N[C@@H](CCC(=O)O)C(=O)N[C@@H](CC(=O)O)C(=O)N[C@@H](C)C(=O)N[C@@H](CO)C(=O)N1CCC[C@H]1C(=O)N[C@@H](CCC(=O)O)C(=O)N[C@@H](CCC(=O)O)C(=O)N[C@H](C(=O)N[C@@H](CCC(N)=O)C(=O)N[C@@H](CCCNC(=N)N)C(=O)N[C@@H](Cc1ccc(O)cc1)C(=O)N[C@@H](CCC(=O)O)C(=O)N[C@H](C(=O)N[C@@H](CO)C(=O)N[C@@H](CC(C)C)C(=O)N[C@@H](CCCNC(=N)N)C(=O)N[C@@H](Cc1c[nH]cn1)C(=O)N[C@@H](Cc1ccc(O)cc1)C(=O)N[C@@H](Cc1ccc(O)cc1)C(=O)N[C@@H](CC(N)=O)C(=O)N[C@@H](Cc1c[nH]c2ccccc12)C(=O)N[C@@H](CC(C)C)C(=O)N[C@H](C(=O)N[C@@H](CCCNC(=N)N)C(=O)N[C@@H](CCC(N)=O)C(=O)N[C@@H](CCCNC(=N)N)C(=O)N[C@@H](Cc1ccc(O)cc1)C(N)=O)[C@@H](C)O)C(C)C)[C@@H](C)O) [Compound 37]
5 | 1.21 nM | Isovaleryl-APEK([AEEA-AEEA-γGlu-C18 diacid])PEEDATPEETQRYYVSLRHYYNWLTRQRY-NH2 (SMILES CC(C)CC(=O)N[C@@H](C)C(=O)N1CCC[C@H]1C(=O)N[C@@H](CCC(=O)O)C(=O)N[C@@H](CCCCNC(=O)COCCOCCNC(=O)COCCOCCNC(=O)CC[C@H](NC(=O)CCCCCCCCCCCCCCCCC(=O)O)C(=O)O)C(=O)N1CCC[C@H]1C(=O)N[C@@H](CCC(=O)O)C(=O)N[C@@H](CCC(=O)O)C(=O)N[C@@H](CC(=O)O)C(=O)N[C@@H](C)C(=O)N[C@H](C(=O)N1CCC[C@H]1C(=O)N[C@@H](CCC(=O)O)C(=O)N[C@@H](CCC(=O)O)C(=O)N[C@H](C(=O)N[C@@H](CCC(N)=O)C(=O)N[C@@H](CCCNC(=N)N)C(=O)N[C@@H](Cc1ccc(O)cc1)C(=O)N[C@@H](Cc1ccc(O)cc1)C(=O)N[C@H](C(=O)N[C@@H](CO)C(=O)N[C@@H](CC(C)C)C(=O)N[C@@H](CCCNC(=N)N)C(=O)N[C@@H](Cc1c[nH]cn1)C(=O)N[C@@H](Cc1ccc(O)cc1)C(=O)N[C@@H](Cc1ccc(O)cc1)C(=O)N[C@@H](CC(N)=O)C(=O)N[C@@H](Cc1c[nH]c2ccccc12)C(=O)N[C@@H](CC(C)C)C(=O)N[C@H](C(=O)N[C@@H](CCCNC(=N)N)C(=O)N[C@@H](CCC(N)=O)C(=O)N[C@@H](CCCNC(=N)N)C(=O)N[C@@H](Cc1ccc(O)cc1)C(N)=O)[C@@H](C)O)C(C)C)[C@@H](C)O)[C@@H](C)O) [Compound 40]
